Measured values as given in the supplement of paper PMC12042874.
± gives the uncertainty stated by the source.

Test: amyloid nucleation score (Sup35N fusion, yeast selection) (log enrichment); library NNK1; higher = more nucleation; inactive = no reads after selection
Outline: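 The nucleation score is a DiMSum log enrichment of output over input reads, centred on the mode score of non-aggregating sequences. Sequences under 100 input reads were excluded, and reads came from Illumina sequencing of plasmid inserts. Psi-negative yeast expressing Sup35N fused to peptides of 20 random codons were induced with 100 μM copper sulfate for 24 hours and grown 7 days at 30°C on medium lacking adenine and uracil. Random libraries had three technical output replicates.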

Substance | amyloid nucleation score
FYVPDWYNCSCIIWGRDACA | 4.19 ± 0.056
FYYGSLPYCVTKRFRDFGNQ | 3.02 ± 0.18
FYYVRLDARMVDSSSFV | -0.542 ± 0.28
FYYYSEFLGPIVYPQHDLLL | -0.1 ± 1.1
GAFWGFFFKCLSTTLNNSWL | inactive
GAIDRGCVDLARTCSLGLTG | 0.508 ± 0.56
GAKYMNMRIRRTSFGSAYQS | 0.335 ± 0.48
GALSNSSMWFGMYVNPLGTY | inactive
GALVYAFYAAS | 0.525 ± 0.89
GASCTLISCLLLLHSAWSLS | 0.237 ± 0.59
GAVIVCVYMQALVVIDRASA | -0.62 ± 0.94
GCEFWSYTLTLRGKNACNKL | -0.234 ± 0.42
GCFASTSNTRC | 1.05 ± 0.66
GCFSPITQWSMWHVWRVRRQ | 0.49 ± 0.97
GCGMDGWDVQ | 0.103 ± 0.25
GCLRVSDTIRGMPRQSLDWA | 0.445 ± 0.28
GCVLFDLSHL | -1.92 ± 2.4
GCVTYIYGCMLYCEEAFR | 5.17 ± 0.085
GCYSQNICCVTCIKRRSIVS | -1.02 ± 0.69
GDANLGKQLWRGWNVG | 0.228 ± 1.2
GDELKRVWYLGTLSRMRGTE | -0.574 ± 0.62
GDIVQLGPKFCKLYLCIWNC | 6.369 ± 0.056

Substance | amyloid nucleation score
GDSWRSYLRILGTYMVRRWC | 0.244 ± 0.54
GDVPYRNMHCPRFLMREMVV | 0.354 ± 0.25
GDVSRQTVEV | -0.094 ± 0.43
GEERFYSLKYCCKGRLWRPG | 0.179 ± 0.43
GEHSLSIICCVLCTVGDGPN | 7.611 ± 0.058
GEIGKKNY | 1.2 ± 0.35
GFALECESEVWSCYYTIRII | 0.444 ± 0.43
GFKRRYCDNISAIHPDSGCK | inactive
GFLSATWCSQWSIILVKERG | 1.48 ± 0.45
GFLTETDNCTICIFHMFVDN | 6.201 ± 0.059
GFNIDT | 0.689 ± 1.2
GFRLMLFVRTM | 1.04 ± 0.45
GFRPEMHGV | inactive
GFTTMEDCGPREGPTIVDDK | -0.149 ± 1.3
GFVEVNTCLKEVSLPSNMPS | 0.714 ± 0.5
GFVTWPLSRSPGSPGCAALM | 0.015 ± 0.39
GFWAKSPLAGHSYKGYQLWA | 1.62 ± 0.57
GFWDFWVGRCLSSYVQFANL | 0.28 ± 0.48
GGCMV | 0.493 ± 0.42
GGIGDQVITRNVGRPREYQR | 1.34 ± 0.76
GGLGTPFFHAPSHMWVKW | -0.551 ± 0.55
GGRKKQLLDNYKGTYLVARI | -0.096 ± 1.1

Substance | amyloid nucleation score
GGRLEKRTCASCTSGQVVGV | 0.294 ± 0.42
GGRLNQHLRSNNTGTHHPGY | -0.533 ± 0.31
GGRLTRQRIVSVLLYVGVAG | 0.077 ± 0.69
GGWGRGECPYSHTKWYVKSG | -0.999 ± 0.94
GHFRSASRKYALTV | -0.619 ± 0.51
GHLWWSVLLVPLFTVGSTSV | 0.399 ± 0.56
GHSRSSGLLKKFCVKSRQDA | 0.234 ± 0.66
GIEKLHDRITSLIFLSMGRR | 1.8 ± 0.19
GILVCLNYLGLFVVYHGFVW | 1.33 ± 0.56
GIMTHVGRPKVTGCGRGKCT | -0.165 ± 1.6
GISCFHW | 1.98 ± 0.18
GISSVG | 0.677 ± 0.4
GIWSNCKYVFSGIMSSYMVS | 0.739 ± 0.16
GKCFVVMWRVLGVDSVLMEV | -0.414 ± 0.25
GKCVTWQASCLQCSKSNWYQ | 0.995 ± 0.81
GKFLRGGHLVFRWATLYLSV | -0.604 ± 0.97
GKGWYTDSMCRIRMMNARLL | 0.233 ± 0.34
GKIYWLLLQTDKDRRFLTMR | -0.744 ± 0.46
GKLPYVFRDCNKTVLVMALF | 0.947 ± 0.73
GKMMVFRVFFRFVPSESWVI | -0.638 ± 0.52
GKPDKVHARGWFTLVNRWLR | 0.399 ± 0.73
GKRIYPWVLNRSH | -0.209 ± 0.28

Substance | amyloid nucleation score
GKSNLARHAPNLEVTMRGTE | 1.27 ± 0.42
GKSRS | 0.784 ± 0.49
GKSWFGYCVSLVCMSWVLSD | 0.67 ± 1.2
GKVFVVSVKCNEVVDFGWCQ | 0.073 ± 0.28
GKYFLSICHDT | 0.033 ± 0.36
GLCDNHINVVVVS | 0.788 ± 0.81
GLFNSDRVNQWPPGPCRDYV | 0.5 ± 0.28
GLFYW | 1.06 ± 0.72
GLHKYPCYPTNSRYVVVINM | 3.27 ± 0.066
GLMGLFVKWYNVVQIFQSRM | -0.437 ± 0.61
GLMNLVSDRMSWLNEV | 0.485 ± 0.84
GLRWYQFEPTQG | 0.126 ± 0.38
GLSGTSALPPGIS | 0.318 ± 0.79
GLSLIA | 0.983 ± 0.76
GLSQKVGKPAAALLRTMVSD | -0.309 ± 0.27
GLTPMRHN | -1.01 ± 1.1
GLTRFGGPSTMIFMDL | -0.201 ± 0.8
GLWMWEEVILISTLKLFVLV | 0.139 ± 0.6
GLYKYYRSLILSLVSFNFS | 1.18 ± 0.16
